Laboratory results taken from the nanobody polyreactivity screen of Harvey et al. (2022).

Experiment: yeast display, Sf9 membrane polyspecificity reagent, FACS + sequencing; frameworks hold sequencing errors
Procedure, shortened: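 In a synthetic yeast display library (Saccharomyces cerevisiae BJ5465), nanobody expression was induced with galactose for 36–48 hours. FACS gates were set low and high (top ~1%) using anti-HA fluorescence for expression and streptavidin fluorescence for binding of the Sf9 membrane reagent. Each polyreactivity label is drawn from the gate of origin.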

In the case of “QVQLVESGGGLVHAGGSLRLSCAPSGSIFGPYAMGWYIQAPGKERELVAAIRSGGSTNYADSVKGRFTISRDNAKNTVYLQMNSLKPDDTSVYYWAGEYWGYPYDYWGQGTQVTVSS”, the “polyreactivity (PSR sort gate)” value was “low polyreactivity”.

With “QVQLVESGGGLVQAGVSLRLSCAASGFISPKYGMGWYRQAPGKERELVAAITSSGGSTYYADSVKGRFTISRDNAKNTVYLQMNSLKPEDTAVYYCATRQVSRLYPYRYNYWGQGTQVTVSS” the “polyreactivity (PSR sort gate)” value was “high polyreactivity”.

With “QVQLVESGGGLVQAGGSLRLSCAASGFTFYFYAMGWYRQAPGKERELVATITIGGRTNYADSVKGRFTISRDNAKNTVYLQMNSLKPEDTAVYYCAAAYLWISRYSGYDYWGQGTQVTVSS” the “polyreactivity (PSR sort gate)” value was “high polyreactivity”.

For “QVQLVESGGGLVQAGGSLRLSCAASGSIFDTYAMGWYRQAPGKEREFVAAISGTDGSTYYADSVKGRFTISRDNAKNTVYLQMNSLKPEDTAVYYCNAEPPRGDTVSSGGEMDYWGQGTQVTVSS”, the “polyreactivity (PSR sort gate)” value was “low polyreactivity”.

For “QVQLVESGGGLVQAGGSLRLSCAASVSTFVLYAMGWYRQAPGKERELVAVISWSGGSTYYADSVKGRFTISRDNAKNTVYLQMNSLKPEDTAVYYCAADSTWEGGYKYEYWGQGTQVTVSS”, the “polyreactivity (PSR sort gate)” value was “low polyreactivity”.

With “QVQLVESGGGLVQAGGSLRLSCAASGLTFYEDVLGWYRQAPGKERELVAAISYSGGRTYYADSVQGRFTISRDNAKNTVYLQMNSLKPEDTAVYYSAAQSRYAGKFYYWGQGTQVTVSS” the “polyreactivity (PSR sort gate)” value was “high polyreactivity”.

In the case of “QVQLHESGGGLVQARGSLRLSCAASGTSSNAGPMGWYRQAPGKEREFVAGIGVGSNTNYADSVKGRYTIIRDNAKNTVYLQMNSLKPEDTAVYYCAVGGYAPLGRPYWGQGTQVTVSS”, the “polyreactivity (PSR sort gate)” value was “low polyreactivity”.

In the case of “QVQLVESGGGLVQAGGILRLSWAASGRTFRYYAMGWYRQAPGKDREFVAAISWSGGSTYYADSVKGRFTISRDNAKNTVYLQMNSLKPEDTAVFYCAAESIYTWGIRGAYWGQGTQVTVSS”, the “polyreactivity (PSR sort gate)” value was “high polyreactivity”.

For “QVQLVETGGGLVQAGGSLRLSCAASGPTFYANAKGWYRQAPGKERELVAVISWGSGSTYYADSVKGRFTISRDNAKNTVYLQMNSLKPEDTAVYYCAKSFYYEGTGDYWGQGTQVTVSS”, the “polyreactivity (PSR sort gate)” value was “low polyreactivity”.

For “QVQLVESGGGLVQAGGSLRLSCAASGFTFDPYAMGWYRQAPGKERELVAAISISGGRTYYADSVKGRFTISRDNAKNTVYLQMNSLKPEDTAVYYCAVAQSHYFGGYGYWGQGTQVTVSS”, the “polyreactivity (PSR sort gate)” value was “low polyreactivity”.

For “QVQLVESGGGLVQAGGSLRLSCAASGRIFQSYAMGWYRQAPGKERELVAGISTRGGNTYYADSVKGRFTISRDNAKNTVYLQMNSLKPEDTAVYYCAKRDYGRFASDYWGQGTQVTVSS”, the “polyreactivity (PSR sort gate)” value was “high polyreactivity”.

For “QVQLVESGGGLVQAGGSLRLSCAASGNIFGRYAMGWYRQAPGKERELVAAINWSGGSTNYADSVKGRFTISRDNAKNTVYLQMNSLKPEDTAVYYCAADYYYSLISNQYKYGQRNFDYWGQGTQVTVSS”, the “polyreactivity (PSR sort gate)” value was “low polyreactivity”.

In the case of “QVQLGESGGGLVQAGGSLRLSCASSGRILNINSMGWYRQAPGKERELVAAITWRGGRTFYADSVKGRFTISRDYAKNKVYFEMNSLKPEDTAVYYCAASSNTWYPTGYYWGQGSQVTVSS”, the “polyreactivity (PSR sort gate)” value was “high polyreactivity”.

With “QDQLLESGGGLVQAGGSLLLSCAASGSTFFDYAMGWYRQAPGKERELVAVISDGGTTTYADSVKGRFTISRDNAKNTVYLQMNSLKPEDTAVYYCAAENQDGLLVILGGYGYWGQGTQVTVSS” the “polyreactivity (PSR sort gate)” value was “low polyreactivity”.

In the case of “QVQLVESGGGLVQAGGSLRLSCAASGRIFRRYAMGWYRQAPGKEREFVAAISTSGGSTYYADSVKGRFTISRDNAKNTVYLQMNSLKPEDTAVYYCAKRFIYGRYNYWGQGTQVTVSS”, the “polyreactivity (PSR sort gate)” value was “high polyreactivity”.

In the case of “QVQLVESGGGLVQAGGSLSLTCAASGIIFSYNAMGWYRQATGKERELVAAISWSGGSTYYADSVKGRFTISRDNAKNTVYLQMNSLKPEDTAVYYCNAPYLIRFKRLGDNWGQGTQVTVSS”, the “polyreactivity (PSR sort gate)” value was “high polyreactivity”.

For “QVQLVESGGGLVQAGGSLRLSCAASGSIFYGNAMGWYRQAPGKERELVAAISYRGVRTYYADSVKGRFTISRDNAKNTVYLQMNSLKPEDTAVYYCAATQGYRREYDYWGQGTQVTVSS”, the “polyreactivity (PSR sort gate)” value was “high polyreactivity”.

With “QVQLVESGGGLVQAGGSLRLSCAASGRTFAFYTMGWYRQAPGKEREFVAASSWSGGSTHYADSVKGRFTISRDNEKNTVYLQMNSLTQEYTAVYYCAAGPFYRFTDGRDKTLDYWGQGNQVTVSS” the “polyreactivity (PSR sort gate)” value was “high polyreactivity”.

In the case of “QVQLVESGGGLVQAGGSLRLSCAASGRIFKVYAMGWYRQAPGKERELVAAITSRGGSTYYADSVKGRFTISRDNAKNTVYLQMNSLKPEDTAVYYCAAARGLPSNKYYYWGQGTQVTVSS”, the “polyreactivity (PSR sort gate)” value was “high polyreactivity”.

For “QVQLVESGGGLVQAGGSLRLSCAASGYTFYQNTMGWYRQAPGKERELVADITRRGGSTYYADSVKGRFTISRDNAKNTVYLQINSLKPEDTAVYYCAARYGPWTGYATYRYASSRYNYWGQGTQVTVSS”, the “polyreactivity (PSR sort gate)” value was “high polyreactivity”.

In the case of “QVQLVESGGGLVQAGGSLRLSCAASGIIFTNYGMGWYRQAPGKERELGAVISRRGGSTYYADSVKGRFTISRDNAKNTVYLQMNSLKPEDTAVYYCNTRTQGAKQYTGYDYWGQGTQVTVSS”, the “polyreactivity (PSR sort gate)” value was “high polyreactivity”.

In the case of “QVQLVESGGGLVQAGGSLRLSCAASGIILYWNAMGWYRQAPGKERELVARITSGGSTNYADSVKGRFTISRDNAKNTVYLQMNSLKPEDTAVYYCAADYKAYGRSYDYWGQGTQVTVSS”, the “polyreactivity (PSR sort gate)” value was “low polyreactivity”.

With “QVQLVESGGGLVQAGGTLRLSCAASVSTIAQNAMGWYRQAPGKEREFVAAITGTVGSTYYADSVKGRFTISRDNAKNTVYLQMKSLKPEDTAVYYCNTRGFNGRVYPYDYWGQGTQVTVSS” the “polyreactivity (PSR sort gate)” value was “low polyreactivity”.

For “QVQLVESGGGLVQAGGSLRLSCAASGFIFSNNAMGWYRQAPGKERELVAAISGRGGSTYYADSVKGRFTISRDNAKNTVYLQMNSLKPEDTAVYYCNALYTYSYSRFDYWGQGTQVTVSS”, the “polyreactivity (PSR sort gate)” value was “low polyreactivity”.

With “QVQLVESGGGLVQAGGSLRLSCAASGNTFVYYAMGWYRQAPGKERELVAGISRRSGSTYYADSVKGRFTISRDNAKNTVYLQMNSLKPEDTAVYYCAIGRTYLDAEDYWGQGSQVTVSS” the “polyreactivity (PSR sort gate)” value was “low polyreactivity”.

With “QVQLVESGGGLVQAGGSLRLSCAASGRIFLRNAMGWYRQAPGKERELVAAISSSGGRTYYADSVKGRFTISRDNAKNTVYLQMNSLKPEDTAVYYCNARWHGSFDYWGQGTQVTVSS” the “polyreactivity (PSR sort gate)” value was “low polyreactivity”.

For “QVQLVESGGGLVQAGGSLRLSCAASGITFGYYAMGWYRQAPGKEREMVAAISFTGASTYYADSVKGRFTISRDNAKNTVYLQMNSLKPEDTAVYYCAADPYVPYQDFLSGFDYWGQGTQVTVSS”, the “polyreactivity (PSR sort gate)” value was “low polyreactivity”.

For “QVQLVESGGGLVQAGGSLRLSCAGYGSIFWWYPMVWYRQAPGKERELVASISWSGTSTYYADSVKGRFTISRDNAKNTVYLQMNSLKPEDTAVYYCNADVYWPGTPYTHDYWGQGTQVTVSS”, the “polyreactivity (PSR sort gate)” value was “low polyreactivity”.

With “QVQLEESGGGLVQAGGSLRLSCAASGSIFTDYAMGSYGQAPGKERELVAAITSGGSTNYADSVKGRFTISRDNAKNTVYLQMNSLKPEDTAVYYCNADDYWLDSWSSDLWYDYWGQGTQVTVSS” the “polyreactivity (PSR sort gate)” value was “low polyreactivity”.

With “QVHLVESGGGLVQAGGSLRLSCAASGGNFRPNAMGWYRQAPGKERELVASITRGGSTNYADSVKGRFTISRDNAKNTVYLQMNSLKPEDTAVYYCSALLRYTRTLYYSWGQGTQVTVSS” the “polyreactivity (PSR sort gate)” value was “high polyreactivity”.

For “QVQVVESGGGLVQAGGSLRLTCAASGRTFINYAIGRYRQPAAKERELVAAITPGGRTNYADSVKGRFTNSRDNAKYTVYLQMNSVTPEDTAVYYCAADRYYWGRYTLNYWGQGTQVTVSS”, the “polyreactivity (PSR sort gate)” value was “low polyreactivity”.

With “QVQLVESGGGLVQAGGSLRLSSAASGRIFSYNAMGWYRQAPGKERELVASISYSGTSTYYADSVKGRFTISRDNAKNTVYLQMNRLKPEDTAVYYCAALSRRRFGYWGQGTQVTVSS” the “polyreactivity (PSR sort gate)” value was “high polyreactivity”.

For “QVQLVESGGGLVQAGGSLRLSCSASGFTFNYNAMGWYRQAPGKERELVASITRSGGRTYYADSVKGRFTISRDNAKITVYLQMNSLKPEDTAVYYCAAEVWYSLSYRVYGGYDFWGQGTQVTVSS”, the “polyreactivity (PSR sort gate)” value was “high polyreactivity”.

With “QVQLVESGGGLVQAGGSLRLSCAASGSNFTNAMGWYRQAPGKERELVASIDANAGDTHYADSVKGRFTISRDNAKNTVYLQLNSLKPEDTAVYYCNADVTERLWTGEDDYWGQGTQVTVSS” the “polyreactivity (PSR sort gate)” value was “low polyreactivity”.

For “QVQLQESGGGLVQAGGSLRLSCAASGTISLGDNMGWYRQAPGKEREFVATISVGGITYYVDSVKGRFTISRDIAKNTVYLQMNSLKPEDTAVYYCAALDIYYFRYYYWGQGTQVTVSS”, the “polyreactivity (PSR sort gate)” value was “low polyreactivity”.

In the case of “QVQLVESGGGLVQAGGSLRLSCAASGLTFEDNDMGWYRQAPGKERELVAAISSAGSTSYADSVKGRFTISRDNAKNTVYLQMNSLKPEDTAVYYCAKRYYLYHYDSWGQGTQVTVSS”, the “polyreactivity (PSR sort gate)” value was “low polyreactivity”.

For “QVQLVESGGGLVQAGGSLRLSCAAYVRIFGYYAMGWYRQAPGKERELVAGISARGGSTYYADSVKGRLTISRDNAKNTVYLQMNSLKPEDTAVYYCAAYYLWPGYLFRPYDYWGHGTQVTVSS”, the “polyreactivity (PSR sort gate)” value was “low polyreactivity”.

With “QVQLVESGGGLVQAGGSIRLSCAASGGTFSYYAMGWYRQAPGKESELVAAISGNGDTTYYADSVKGRFTISRDNAKNTDYVQMNSLKPEDTAVYYCATAFSYGGGAYDYWGQGTLVTVSS” the “polyreactivity (PSR sort gate)” value was “low polyreactivity”.

For “QVQLVQSGGGLVQAGGSLRLSCAASGRIFRLSGMGWYRQAPGKERELVAAITRGASTYYADSVKGRFTISRDNAKNTVYLELNSLKPEDTAVYYCAAEGLITGGYWHLYYWGHGTQVTVSS”, the “polyreactivity (PSR sort gate)” value was “high polyreactivity”.

With “QVQLVESGGGLVQAGGSLRLSCSASGSTFGYYAMGWYRQAPGKERELVAAITRSGGSTFYADSVKGRFTISRDNAKNTVYLQMNSLKPEDTAVYYCAATYWPYRPGYYYWGQGTQVTVSS” the “polyreactivity (PSR sort gate)” value was “high polyreactivity”.

In the case of “QVQLVESGGGLDQAGGSLRLSCAASGITFPYYAMGRYIQAPGKERELVADITSGGSTNYADSVKGRFTISRDNAKNTGYLQMNRLKPEDTAVYYCAADWYVIYDYWGQGTQVSVSS”, the “polyreactivity (PSR sort gate)” value was “low polyreactivity”.

For “QVQLVESGGGLVQAGGSLRLICAASGSTFKRYAMGWYRQAPGKERELVAAISTRGSTYYADSVKGRFTISRDNAKNTVYLQMNSLKPEDTAVYYCNARQALVWKWSWYSPGYDYWGQGTQVTVSS”, the “polyreactivity (PSR sort gate)” value was “low polyreactivity”.

In the case of “QVQLVESGGGLVQAGGSLRLICAASGSIFVGYAMGWCRQAPGKERELVAAIRSGGSTKYADSVKGRFTISRDNAKNTVYLQMNSLKPEDTAVYYCNVEVHPYYWVDNFHRFPVLHNYWGQGTQVTVSS”, the “polyreactivity (PSR sort gate)” value was “low polyreactivity”.
